Key:
[1] = High performance size-exclusion chromatography (HP-SEC): monomer, HMWS, LMWS; type: physicochemical; details: method test
Description: The ability of the HP-SEC method to detect changes in the monomer, HMWS and LMWS content was tested with stressed samples. […] Multiple freeze-thaw cycles had no influence on the SEC profile.

[2] = test system: irritable bowel syndrome (IBS); details: clinical trials; cited from earlier work
[3] = test system: constipation predominant IBS (IBS-C); details: cited from earlier work
[4] = in solution; cited from earlier work

## H-HVEGTFTSDVSSYLEGQAAKEFIAWLVKGRG-OH [ROSE-010]
[1]; mechanical stress
  overall signal intensity (HP-SEC): substantial loss
[1]; multiple freeze-thaw cycles
  SEC profile: no influence
[1]; one week storage at 40° C.
  HMWS content: slight increase
[2]
  acute exacerbations of irritable bowel syndrome (IBS): reduce acute exacerbations of irritable bowel syndrome (IBS)
[3]; at 48 h with 30 and 100 μg
  colonic transit: accelerated colonic transit
[3]
  gastric emptying of solids: delayed gastric emptying of solids
[4]
  noncovalent aggregates: forms noncovalent aggregates in solution
